Measured values taken from the supplement of paper PMC10567573.

B1: FOXJ1 (parent)
chain: SAIYKWITDNFCYFRHADPTWQNS

Variants of: B1
Assay: protein stability index of a GFP-peptide fusion (GPS, HEK-293T) (PSI 1-6); higher = more stable
Settings: c terminus: a fixed tail appended
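Note: lentivirally expressed fusions sorted by FACS into six bins by GFP to DsRed ratio, PSI derived from sequencing read proportions per bin multiplied by bin number.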

Row | Variant | protein stability index
1 | W6S | 1.71
2 | W6T | 1.43
3 | W6V | 1.49
4 | W6Y | 3.11
5 | I7A | 2.02
6 | I7C | 1.84
7 | I7D | 2.27
8 | I7E | 2.3
9 | I7F | 2.87
10 | I7G | 2.4
11 | I7H | 1.6
12 | I7K | 1.74
13 | I7L | 2.9
14 | I7M | 3.88
15 | I7N | 1.93
16 | I7P | 2.1
17 | I7Q | 1.36
18 | I7R | 1.79
19 | I7S | 2.81
20 | I7T | 1.66
21 | I7V | 2.81
22 | I7W | 3.71
23 | I7Y | 1.86
24 | T8A | 3.42

Row | Variant | protein stability index
25 | T8C | 2.73
26 | T8D | 3.49
27 | T8E | 2.79
28 | T8F | 3.33
29 | T8G | 2.05
30 | T8H | 3.34
31 | T8I | 1.8
32 | T8M | 3.27
33 | T8N | 3.01
34 | T8P | 1.86
35 | T8Q | 2.78
36 | T8R | 2.51
37 | T8S | 4.33
38 | T8V | 2.13
39 | D9A | 2.74
40 | D9C | 4.21
41 | D9E | 3.89
42 | D9F | 3.55
43 | D9G | 3.51
44 | D9H | 4.47
45 | D9I | 4
46 | D9L | 2.65
47 | D9M | 3.64
48 | D9P | 2.83

Row | Variant | protein stability index
49 | D9Q | 2.67
50 | D9R | 3.41
51 | D9S | 3.04
52 | D9T | 3.43
53 | D9Y | 2.56
54 | N10C | 2.08
55 | N10D | 1.58
56 | N10E | 2.62
57 | N10F | 1.81
58 | N10G | 1.42
59 | N10H | 2.3
60 | N10I | 2.79
61 | N10K | 2.34
62 | N10L | 3.56
63 | N10M | 2.89
64 | N10P | 2.13
65 | N10Q | 2.11
66 | N10R | 2.2
67 | N10T | 2.05
68 | N10V | 1.74
69 | N10W | 2.06
70 | N10Y | 3.33
71 | F11C | 2.68
72 | F11D | 1.49

Row | Variant | protein stability index
73 | F11E | 1.89
74 | F11G | 1.96
75 | F11H | 2.71
76 | F11K | 2.08
77 | F11L | 3.24
78 | F11M | 3.18
79 | F11N | 2.05
80 | F11P | 1.79
81 | F11Q | 2.21
82 | F11R | 3.03
83 | F11S | 3.59
84 | F11T | 2.83
85 | F11V | 3.51
86 | F11W | 2.53
87 | F11Y | 3.4
88 | C12A | 2.57
89 | C12D | 1.59
90 | C12E | 1.95
91 | C12F | 2.67
92 | C12G | 2.61
93 | C12H | 3.13
94 | C12I | 2.77
95 | C12K | 2.81
96 | C12L | 3.4

Row | Variant | protein stability index
97 | C12N | 1.6
98 | C12P | 1.97
99 | C12Q | 1.81
100 | C12R | 1.81
101 | C12S | 2.78
102 | C12T | 3.14
103 | C12V | 2.69
104 | C12W | 3.99
105 | C12Y | 3.81
106 | Y13A | 3.53
107 | Y13C | 2.83
108 | Y13D | 1.8
109 | Y13E | 1.03
110 | Y13F | 2.47
111 | Y13G | 3.62
112 | Y13H | 3.23
113 | Y13K | 1.86
114 | Y13L | 1.87
115 | Y13M | 2.87
116 | Y13P | 2.18
117 | Y13Q | 1.57
118 | Y13R | 1.8
119 | Y13S | 2.2
120 | Y13T | 2.96

Row | Variant | protein stability index
121 | Y13V | 3
122 | Y13W | 3.59
123 | F14A | 2.32
124 | F14C | 3.92
125 | F14D | 2.64
126 | F14E | 2.23
127 | F14G | 2.33
128 | F14H | 2.56
129 | F14I | 4.22
130 | F14K | 2.58
131 | F14M | 2.21
132 | F14N | 2.14
133 | F14P | 2.04
134 | F14R | 1.75
135 | F14S | 2.13
136 | F14V | 3.33
137 | F14W | 2.73
138 | F14Y | 2.97
139 | R15A | 1.81
140 | R15C | 3.16
141 | R15D | 2.25
142 | R15E | 4.29
143 | R15F | 2.57
144 | R15G | 3.31

Row | Variant | protein stability index
145 | R15H | 5.96
146 | R15I | 2.32
147 | R15L | 2.95
148 | R15M | 2.66
149 | R15N | 3.46
150 | R15P | 2.53
151 | R15S | 2.76
152 | R15T | 1.69
153 | R15W | 2.97
154 | R15Y | 2.33
155 | H16A | 2.55
156 | H16D | 2.33
157 | H16F | 3.57
158 | H16G | 2.72
159 | H16I | 1.75
160 | H16K | 1.7
161 | H16L | 4.65
162 | H16P | 3.62
163 | H16Q | 3.32
164 | H16R | 5.03
165 | H16S | 3.5
166 | H16T | 2.32
167 | H16W | 1.82
